Laboratory results: US8236512B1, “Methods of developing terpene synthase variants” (Amyris, Inc., priority 2011, dated 2012)

Assays:
[1] = system: CC(C)=CCC/C(C)=C/CC/C(C)=C/CO[P@@](=O)(O)OP(=O)(O)O; test: Steady-state kinetics of purified farnesene synthase variant FS_B_5.3; assay type: biochemical, Artemisia annua; settings: other: purified enzyme, 20.0 °C
[2] = system: CC(C)=CCC/C(C)=C/CC/C(C)=C/CO[P@@](=O)(O)OP(=O)(O)O; test: cells, lysate or membranes named; settings: other: purified enzyme, steady-state; 20.0 °C

Artemisia annua β-farnesene synthase, wild type, SEQ ID NO: 111 (FS_Aa_Ec coding sequence, SEQ ID NO: 62) (Artemisia annua), sequence (chain, as listed by the source): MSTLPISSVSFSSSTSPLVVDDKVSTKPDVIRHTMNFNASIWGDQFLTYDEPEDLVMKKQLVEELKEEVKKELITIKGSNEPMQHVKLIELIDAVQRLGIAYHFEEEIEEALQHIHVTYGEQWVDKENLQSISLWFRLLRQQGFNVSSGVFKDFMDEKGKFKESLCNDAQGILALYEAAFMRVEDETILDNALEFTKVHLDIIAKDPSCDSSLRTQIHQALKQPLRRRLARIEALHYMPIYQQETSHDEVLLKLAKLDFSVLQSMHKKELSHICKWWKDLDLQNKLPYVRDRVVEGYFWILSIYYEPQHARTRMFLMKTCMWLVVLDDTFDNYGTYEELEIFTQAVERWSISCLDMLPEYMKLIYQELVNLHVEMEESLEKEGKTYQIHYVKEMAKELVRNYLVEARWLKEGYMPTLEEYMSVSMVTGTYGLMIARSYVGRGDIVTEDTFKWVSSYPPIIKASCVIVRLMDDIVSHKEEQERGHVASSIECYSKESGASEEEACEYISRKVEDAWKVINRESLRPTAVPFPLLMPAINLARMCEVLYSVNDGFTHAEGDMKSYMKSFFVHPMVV

Substance	Km [1] [µM]	kcat [1] [s⁻¹]	Km [2] [µM]	kcat [2] [s⁻¹]
Artemisia annua β-farnesene synthase (SEQ ID NO: 111) variant FS_B_5.3 F11S/V24D/M35T/T196S/Y288F/T319S/I434T/T446N/I460V/V467I (FS_B_5.3_Ec; parent coding sequence FS_B, SEQ ID NO: 119) (Artemisia annua; F11S/I437T/I463V/M35T/T196S/T319S/T449N/V24D/V470I/Y288F)	1.18 ± 0.44	0.093 ± 0.009	–	–
Artemisia annua β-farnesene synthase, wild type, SEQ ID NO: 111 (FS_Aa_Ec coding sequence, SEQ ID NO: 62) (Artemisia annua)	–	–	0.58 ± 0.19	0.071
